Test results: patent US20210380678A1 (SURROZEN OPERATING, published 2021)
Where a chain is given by its changes, count along the chain named. Each block holds one binder with its values, some of them ahead of it.

Assays:
[1] = biological target: T1, human ZNRF3 extracellular domain (hZNRF3 ECD) (human, UniProt Q9ULT6 56-219, biotinylated (His-Avi tag)); experiment: BLI (Octet) KD grade: *** = 100 nM > KD
T1 construct: Expressed with a His-Avi tag at the N-terminus and biotinylated; also called ZRNF3
T1 sequence: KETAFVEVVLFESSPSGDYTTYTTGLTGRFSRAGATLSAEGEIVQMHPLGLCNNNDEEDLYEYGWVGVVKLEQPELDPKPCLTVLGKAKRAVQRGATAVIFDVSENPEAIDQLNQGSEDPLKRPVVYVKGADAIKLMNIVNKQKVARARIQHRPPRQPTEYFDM
Experimental: (§1) Binding characterization of recombinant Fabs or IgG' s was carried out using Bio-Layer Interferometry (BLI) using the Octet Red 96 platform (PALL ForteBio, Fremont, Calif.) with streptavidin (SA) coated biosensors (PALL ForteBio,). […] Following immobilization, sensors were dipped into samples containing test molecules at seven concentrations. Values for KD were determined by fitting the resulting data with a 1:1 binding model.

[2] = biological target: T1, human ZNRF3 extracellular domain …; experiment: BLI (Octet), biotinylated antigen on SA sensor, 1:1 fit
Experimental: as §1

[3] = biological target: T2, human RNF43 extracellular domain (hRNF43 ECD) (human, UniProt Q68DV7 44-197, biotinylated (His-Avi tag)); experiment: ELISA (binding specificity)
T2 construct: Expressed with a His-Avi tag at the N-terminus and biotinylated; also called human RNF3 (Q44-D198)
T2 sequence: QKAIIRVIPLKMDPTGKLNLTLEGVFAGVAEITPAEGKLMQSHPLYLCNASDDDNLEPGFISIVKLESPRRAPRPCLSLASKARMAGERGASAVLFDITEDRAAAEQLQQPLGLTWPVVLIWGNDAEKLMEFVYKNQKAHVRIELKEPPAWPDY

[4] = biological target: T1, human ZNRF3 extracellular domain …; experiment: BLI (Octet) KD grade: * = KD >= 1 uM
Experimental: as §1

[5] = biological target: T1, human ZNRF3 extracellular domain …; experiment: BLI (Octet) KD grade: ** = 1 uM > KD >= 100 nM
Experimental: as §1

KD [1]: < 100 nM | Kd [2]: 48 nM
B2: 028S-H04 (antibody, V domains shown)
VH: QVQLVQSGAEVKKPGASVKVSCKASGYTFIGYYMHWVRQAPGQGLEWLGWVNPKNGHTGYAQKFQGRVTMTRDTSTSTVYMELSSLRSEDTAVYYCAKDLEHTGYSSGWAGFDYWGQGTLVTVSS
VL: not shown

binding result [3]: binds
B4: 028S-G01 (antibody, V domains shown)
VH: QVQLVQSGAEVKKPGASVKVSCKASGYTFTNYYMHWVRQAPGQGLEWMGWINPHSGGTNYAQKFQGRVTMTRDTSTSTVYMELSSLRSEDTAVYYCAREDYNWNDGWFDPWGQGTLVTVSS
VL: DIQMTQSPSSLSASVGDRVTITCRASENIHKYLNWYQQKPGKAPKLLIYAASSLQSGVPSRFSGSGSGTDFTLTISSLQPEDFATYYCQQGYSTPYTFGQGTKLEIK

binding result [3]: binds
B6: 024S-A02 (antibody, V domains shown)
VH: EVQLVQSGAEVKKPGASVKVSCKASGYTFTSYAMHWVRQAPGQRLEWMGWINAGNGNTKYSQTFQGRVTITRDTSASTAYMELSSLRSEDTAVYYCARDLMVRGGPPFDYWGQGTLVTVSS
VL: not shown

binding result [3]: binds
B14: 020S-E06 (antibody, V domains shown)
VH: QVQLVQSGAEVKKPGASVKVSCKASGYTFTGYYMHWVRQAPGQGLEWMGIINPSGGSTSYAQKFQGRVTMTRDTSTSTVYMELSSLRSEDTAVYYCARGRQGVWDYWGRGTLVTVSS
VL: DIQMTQSPSSLSASVGDRVTITCRSSQSIRTYLNWYQQKPGKAPKLLIYAASTLQSGVPSRFSGSGSGTDFTLTISSLQPEDFATYYCQQANSFPITFGGGTKVEIK

binding result [3]: binds
B17: 020S-F06 (antibody, V domains shown)
VH: QVQLVQSGAEVKKPGASVKVSCKASGYTFTSYYLHWVRQAPGQGLEWMGWMNPNSGNTGYAQNFQGRVTMTRDTSTSTVYMELSSLRSEDTAVYYCARGDFWSGYYPYYYYYYGMDVWGQGTTVTVSS
VL: B14 VL with S25V, S28G, R30S, T31S, A91S, N92Y, S93G, F94A, I96L, G100Q

binding result [3]: binds
B19: 028S-B01 (antibody, V domains shown)
VH: QVQLVQSGAEVKKPGASVKVSCKASGYTFTAYYMHWVRQAPGQGLEWMGIINPNGGRTTYAQKFQGRVTMTRDTSTSTVYMELSSLRSEDTAVYYCARSFGVAGTLDYWGQGTLVTVSS
VL: DIVMTQSPLSLPVTPGEPASISCRSSQSLLHSNGYNYLDWYLQKPGQSPQLLIYDASNLETGVPDRFSGSGSGTDFTLKISRVEAEDVGVYYCMQTLHTPYTFGQGTKLEIK

The remaining lines, values behind:

B1: 028S-C03 (antibody, V domains shown)
VH: QVQLVQSGAEVKKPGASVKVSCKASGYTFSRYFMHWVRQAPGQGLEWMGWINPNSGGTRYAQNLQGRVTMTRDTSTSTVYMELSSLRSEDTAVYYCARDQKGKSSSWFRFDPWGQGTLVTVSS
VL: not shown
KD [1]: < 100 nM | Kd [2]: 25.1 nM

B3: 028S-A04 (antibody, V domains shown)
VH: QVQLVQSGAEVKKPGASVKVSCKASGYTFTNYKMHWVRQAPGQGLEWMGKINPSSGSTSYAQKFQGRVTMTRDTSTSTVYMELSSLRSEDTAVYYCARSGAGMWYFDLWGRGTLVTVSS
VL: B4 VL with E27Q, N28D, H30Y, K31R, Y49F, Q55H, G91S, S93T, Y96I, L104V
KD [1]: < 100 nM | Kd [2]: 36.2 nM

B5: 028S-B07 (antibody, V domains shown)
VH: QVQLVQSGAEVKKPGASVKVSCKASGYTFTEYYMHWVRQAPGQGLEWMGWMNPNSGHAGSAQKFQGRVTMTRDTSTSTVYMELSSLRSEDTAVYYCARGRRSGLSPPAYWGQGTLVTVSS
VL: EIVMTQSPATLSVSPGERATLSCRASQSVSASLAWYQQKPGQAPRLLIYGASTRATGIPARFSGSGSGTEFTLTISSLQSEDFAVYYCHQYFSPPMTFGQGTRLEIK
KD [1]: < 100 nM | Kd [2]: 65.4 nM

B7: 028S-E04 (antibody, V domains shown)
VH: EVQLLESGGGLVQPGGSLRLSCAASGFTFNNFGMSWVRQAPGKGLEWVSGISASGRNTYYADSVKGRFTISRDNSKNTLYLQMNSLRAEDRAVYYCARETRHGSDYWGQGTLVTVSS
VL: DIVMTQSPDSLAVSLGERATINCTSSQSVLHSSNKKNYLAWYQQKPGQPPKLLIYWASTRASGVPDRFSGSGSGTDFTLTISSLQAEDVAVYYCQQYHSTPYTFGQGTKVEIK
KD [1]: < 100 nM | Kd [2]: 95.3 nM

B8: 028S-A09 (antibody, V domains shown)
VH: QVQLVQSGAEVKKPGASVKVSCKASGYRFTSYYLHWVRQAPGQGLEWMGWMNPKSGGTNYAQKFQGRVTMTRDTSTSTVYMELSSLRSEDTAVYYCARGGRSYGYWYFDLWGRGTLVTVSS
VL: EIVMTQSPATLSVSPGERATLSCRASQSVDSSYLAWYQQKPGQAPRLLIYAASARAAGIPARFSGSGSGTEFTLTISSLQSEDFAVYYCQQYYRSPPTFGQGTRLEIK
KD [4]: ≥ 1000 nM | Kd [2]: 12500 nM

B9: 028S-D02 (antibody, V domains shown)
VH: QVQLQQSGPGLVKPSQTLSLTCAISGDSVSSNSAAWYWIRQSPSRGLEWLGRTYYRSKWYHDYAVSVKSRITINADTSKNQFSLQLNSVTPEDTAVYYCARVVRAVDAFDIWGQGTMVTVSS
VL: ETTLTQSPGTLSLSPGERATLSCRASQSVNSRYLAWYQQKPGQAPRLLIYGASSRATGIPDRLTGSGSGTDFTLTISRLEPEDFAVYYCQQYGSSRLTFGGGTKVEIK
KD [4]: ≥ 1000 nM | Kd [2]: 3320 nM

B10: 028S-G06 (antibody, V domains shown)
VH: EVQLLESGGGLVQPGGSLRLSCAASGFAFSNFAMIWVRQAPGKGLEWVSAISGSGGSTYYADSVKGRFTISRDNSKNTLYLQMNSLRAEDTAVYYCARLRANYGMDVWGQGTTVTVSS
VL: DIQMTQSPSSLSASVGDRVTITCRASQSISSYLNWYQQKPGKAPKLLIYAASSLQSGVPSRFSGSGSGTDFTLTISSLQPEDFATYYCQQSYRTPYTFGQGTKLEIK
KD [5]: 100 to 1000 nM | Kd [2]: 109 nM

B11: 028S-G10 (antibody, V domains shown)
VH: QVQLVQSGAEVKKPGASVKVSCKASGYTFTSYGVSWVRQAPGQGLEWMGIINPRGGSTSYAQNFQGRVTMTRDTSTSTVYMELSSLRSEDTAVYYCARYSSSWSWPFDYWGQGTLVTVSS
VL: DIQMTQSPSSLSASVGDRVTITCRASQGISNNLNWYQQKPGKAPKLLIYAASTLQSGVPSRFSGSGSGTDFTLTISSLQPEDFATYYCQQSYSTPTFGQGTKVEIK
KD [5]: 100 to 1000 nM | Kd [2]: 684 nM

B12: 028S-E08 (antibody, V domains shown)
VH: EVQLLESGGGLVQPGGSLRLSCAASGFSFSNYAMSWVRQAPGKGLEWVSAISGSGRTTYYADSVKGRFTISRDNSKNTLYLQMNSLRAEDTAVYYCARRTSSFSLWGQGTLVTVSS
VL: DIQMTQSPSSLSASVGDRVTITCRASQSINNWLAWYQQKPGKAPKLLIYKASSLESGVPSRFSGSGSGTDFTLTISSLQPEDFATYYCQQANTFPITFGQGTRLEIK
KD [4]: ≥ 1000 nM | Kd [2]: 3900 nM

B13: 028S-A11 (antibody, V domains shown)
VH: QVQLVQSGAEVKKPGASVKVSCKASGGTFSGYYMHWVRQAPGQGLEWMGWINPNRGGTSYAQNFQGRVTMTRDTSTSTVYMELSSLRSEDTAVYYCARGMYSSSWLRYWGQGTLVTVSS
VL: B4 VL with E27Q, N28G, H30S, K31N, N34A, Y92S, T94F, Y96L, L104V, E105D
KD [5]: 100 to 1000 nM | Kd [2]: 203 nM

B15: 028S-C04 (antibody, V domains shown)
VH: B14 VH with G31R, R100G, Q101S, V103W, W104L, R109Q
VL: B14 VL with S25A, R30S, Y32W, N34A, A91S, N92Y, F94S, I96L
KD [5]: 100 to 1000 nM | Kd [2]: 164 nM

B16: 028S-D04 (antibody, V domains shown)
VH: QVQLVQSGAEVKKPGASVKVSCKASGGTFSSYAISWVRQAPGQGLEWMGRISPNRGGTKYAQKFQGRVTMTRDTSTSTVYMELSSLRSEDTAVYYCARDSWLRGAWGYWGQGTLVTVSS
VL: B4 VL with E27Q, N28S, H30S, K31R, Y32W, N34A, S53T, G91S, Y92F, L104V
KD [5]: 100 to 1000 nM | Kd [2]: 874 nM

B18: 028S-D09 (antibody, V domains shown)
VH: B14 VH with G31R, Y32H, R100S, Q101L, V103Y, W104F, Y106L
VL: not shown
KD [5]: 100 to 1000 nM | Kd [2]: 354 nM

B20: 028S-B06 (antibody, V domains shown)
VH: QVQLVQSGAEVKKPGASVKVSCKASGYRFTNYYMHWVRQAPGQGLEWMGWISPNSGATNYAQNFQGRVTMTRDTSTSTVYMELSSLRSEDTAVYYCARGGRTTVTTMAYWGQGTLVTVSS
VL: B19 VL with D55G, N58S, E60Q, T61S, T96G, L97T, T99W, Y101R, L109V, E110D
KD [5]: 100 to 1000 nM | Kd [2]: 764 nM
